Measured values published in US20100239588A1 (SHANGHAI NATIONAL ENGINEERING RESEARCH CENTER OF ANTIBODY …, published 2010).
Ends that are not written are not given here.

Assays:
phage clone 5D2 = target: T1, phage clone 5D2; test: phage clone panned on an antibody-coated plate, eluted titer
T1 construct: The sentence also calls it a 'synthetic short peptide'; not shown: phage coat protein carrying the 12-mer (NEB Ph.D.-12 library)
T1 peptide: GTSTEVWLAPDP

phage clone 5F12 = target: T2, phage clone 5F12; test: as above
T2 construct: not shown: phage coat protein carrying the 12-mer (NEB Ph.D.-12 library)
T2 peptide: DVYWLMPDPPTS

human OPN protein [1] = target: T3, human OPN protein (human, UniProt P10451 17-314, limits assumed); test: western blot
T3 construct: also called hOPN; human osteopontin

KLH-5F12 = target: T4, KLH-5F12 (also: coupled to KLH (site and chemistry not given here)); test: dot blot, 10 ng dots of KLH peptide
T4 construct: Synthetic 5F12 peptide as a KLH conjugate, spotted in the dot blot; also called short peptide 5F12 coupled to KLH
T4 peptide: DVYWLMPDPPTS
Method: Dot-blot assay was as follows: three dots of 3×10 ng KLH-4B5 (irrelevant control) and KLH-5F12 respectively, were pointed. Each short peptide obtained in experiment V-4 was used to hybrid with three different antibodies. After being blocked and washed, the membrane was reacted with primary antibody at room temperature for 1 hour. Then, the membrane was washed again, and reacted with HRP-labeled anti-mouse secondary antibody at room temperature for 1 hour. After being washed, the membrane was pressed and exposed.

human OPN protein [2] = target: T3, human OPN protein; test: western blot, 5 ug hOPN per lane
Method: SDS-PAGE (10%) electrophoresis was carried out (5 ug hOPN/lane). hOPN was transferred to nitrocellulose membrane by 360 mA constant current for 1 hour.

T3 sequence (P10451 17-314 limits assumed): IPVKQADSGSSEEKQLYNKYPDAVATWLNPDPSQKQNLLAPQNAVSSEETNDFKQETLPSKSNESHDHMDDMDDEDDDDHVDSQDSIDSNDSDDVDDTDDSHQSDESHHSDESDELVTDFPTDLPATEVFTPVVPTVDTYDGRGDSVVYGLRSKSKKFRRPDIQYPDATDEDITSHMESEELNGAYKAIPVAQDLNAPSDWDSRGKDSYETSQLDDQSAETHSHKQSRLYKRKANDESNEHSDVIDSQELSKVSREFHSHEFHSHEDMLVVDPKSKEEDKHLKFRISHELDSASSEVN

Binder | binding result (phage clone 5D2) | binding result (phage clone 5F12) | binding result (human OPN protein [1]) | binding result (KLH-5F12) | binding result (human OPN protein [2])
mouse anti-human OPN monoclonal antibody 23C3 (antibody, V domains shown, also called 23C3 mAb; 23C3 monoclonal antibody) VH: EVQLVESGGGLVQPKGSLKISCAASGFTFNIYAMNWVRQAPGKGLEWVARIRSQSNNYTTYYADSVKDRFTISRDDSQSMLYLQMNNLKTEDTAMYYCVRQMGDYWGQGTTLTVSS VL: YIQMTQSPASLSVSVGETVTITCRASENIYSFLAWYQQKQGKSPQLLVYAATNLADGVPSRFSGSGSGTQFSLKINSLQSEDFGTYYCQHFWGTPFTFGSGTKLEIKR | binds | binds | binds | binds | 
anti-OPN humanized antibody h23C3 (h23C3Hb/h23C3Lb) (antibody, human IgG1, kappa, V domains shown, Humanized variable regions that retain seven murine framework residues, joined to the human CH and CL by the same method as for h23C3Ha/h23C3La; The signal peptide is left out; also called h23C3VHb/h23C3VLb) VH: EVQLVESGGGLVQPGGSLRLSCAASGFTFNIYAMNWVRQAPGKGLEWVARIRSQSNNYTTYYADSVKDRFTISRDDSKNSLYLQMNSLKTEDTAVYYCVRQMGDYWGQGTLVTVSS VL: YIQMTQSPSSLSASVGDRVTITCRASENIYSFLAWYQQKPGKAPQLLVYAATNLADGVPSRFSGSGSGTQFTLTISSLQPEDFATYYCQHFWGTPFTFGQGTKLEIKR |  |  |  |  | binds
anti-OPN chimeric antibody c23C3 (antibody, human IgG1, kappa, V domains shown, 23C3 VH and VL joined by overlap PCR to the cloned human CH (pGEM-T/CH) and CL (pGEM-T/CL); also called C23C3 chimeric antibody; chimeric monoclonal antibody c23C3) VH: EVQLVESGGGLVQPKGSLKISCAASGFTFNIYAMNWVRQAPGKGLEWVARIRSQSNNYTTYYADSVKDRFTISRDDSQSMLYLQMNNLKTEDTAMYYCVRQMGDYWGQGTTLTVSS VL: YIQMTQSPASLSVSVGETVTITCRASENIYSFLAWYQQKQGKSPQLLVYAATNLADGVPSRFSGSGSGTQFSLKINSLQSEDFGTYYCQHFWGTPFTFGSGTKLEIKR |  |  |  |  | binds
